Results on one molecule are retold here after US20140005098A1 (INSERM INSTITUT NATIONAL DE LA SANT ET DE LA RECHERCHE M …, published 2014).

In this experiment the target is T1, IGF-II (UniProt P01344 25-91).
T1 construct: also called biotinylated IGF-II (tracer form)
The experiment can be described thus: solid-phase displacement of biotinylated IGF-II tracer (Example 5, to which the sentence points); reference: unfused mini-IGFBP-3. As for the experimental part: A solid-phase assay was used to study the binding affinity of mini-IGFBP-3-Fc for IGF-II. In this assay, two binding proteins (mini-IGFBP-3 and mini-IGFBP-3-Fc) were immobilized to a support. They were incubated with the biotinylated IGF-II tracer, and then increasing concentrations of IGF-II were added.

T1 sequence (P01344 25-91 limits assumed): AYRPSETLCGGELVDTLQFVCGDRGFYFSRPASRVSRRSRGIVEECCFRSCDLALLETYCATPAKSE

B1: mini-IGFBP-3-Fc (mini-IGFBP-3-FcIgG1 fusion protein, immunoadhesin) (Fc fusion, human)
chain: GASSAGLGPVVRCEPCDARALAQCAPPPAVCAELVREPGCGCCLTCALSEGQPCGIYTERCGSGLRCQPSPDEARPLQALLDGRGLCVNASAVSGGGSGGSGGSGGSGGETEYGPCRREMEDTLNHLKFLNVLSPRGVHIPNCDKKGFYKKKQCRPSKGRKRGFCWCVDKYGQPLPGYTTKGKEDVHCYSMQSK
notes: range 1-94;range 180-264; also called mini-IGFBP-3 immunoadhesin; not shown: Fc fragment of human IgG1 from the pYM-Fc-IgG1 vector
Turning to B1, the “fold apparent affinity (IC50) against IGFBP-3 derivatives not fused to IgG1 Fc” value turned out to be 7 fold.
